According to US9322000B2, “Methanol dehydrogenase enzymes from Bacillus” (Sinvent AS, priority 2012, dated 2016):
Entries after “also recorded” stand apart in the source; their conditions may differ. Read-outs that look alike come from different tables or passages of the source.

B1: Mdh3-MGA3: NAD-dependent methanol dehydrogenase encoded by chromosomal gene mdh3 of B. methanolicus MGA3, SEQ ID NO. 4 (protein)
chain: MKNTQSAFYMPSVNLFGAGSVNEVGTRLAGLGVKKALLVTDAGLHSLGLSEKIAGIIREAGVEVAIFPKAEPNPTDKNVAEGLEAYNAENCDSIVTLGGGSSHDAGKAIALVAANGGTIHDYEGVDVSKKPMVPLIAINTTAGTGSELTKFTIITDTERKVKMAIVDKHVTPTLSINDPELMVGMPPSLTAATGLDALTHAIEAYVSTGATPITDALAIQAIKIISKYLPRAVANGKDIEAREQMAFAQSLAGMAFNNAGLGYVHAIAHQLGGFYNFPHGVCNAILLPHVCRFNLISKVERYAEIAAFLGENVDGLSTYEAAEKAIKAIERMARDLNIPKGFKELGAKEEDIETLAKNAMNDACALTNPRKPKLEEVIQIIKNAM
modifications: Bacillus methanolicus MGA3
B2: Mdh-MGA3: previously reported plasmid pBM19-encoded NAD-dependent methanol dehydrogenase of B. methanolicus MGA3, SEQ ID NO. 8 (protein)
chain: MTTNFFIPPASVIGRGAVKEVGTRLKQIGAKKALIVTDAFLHSTGLSEEVAKNIREAGVDVAIFPKAQPDPADTQVHEGVDVFKQENCDSLVSIGGGSSHDTAKAIGLVAANGGRINDYQGVNSVEKPVVPVVAITTTAGTGSETTSLAVITDSARKVKMPVIDEKITPTVAIVDPELMVKKPAGLTIATGMDALSHAIEAYVAKGATPVTDAFAIQAMKLINEYLPKAVANGEDIEAREKMAYAQYMAGVAFNNGGLGLVHSISHQVGGVYKLQHGICNSVNMPHVCAFNLIAKTERFAHIAELLGENVAGLSTAAAAERAIVALERINKSFGIPSGYAEMGVKEEDIELLAKNAYEDVCTQSNPRVPTVQDIAQIIKNAM
modifications: Bacillus methanolicus MGA3
B3: Mdh2-MGA3: NAD-dependent methanol dehydrogenase encoded by chromosomal gene mdh2 of B. methanolicus MGA3, SEQ ID NO. 2 (protein)
chain: MTNTQSAFFMPSVNLFGAGSVNEVGTRLADLGVKKALLVTDAGLHGLGLSEKISSIIRAAGVEVSIFPKAEPNPTDKNVAEGLEAYNAENCDSIVTLGGGSSHDAGKAIALVAANGGKIHDYEGVDVSKEPMVPLIAINTTAGTGSELTKFTIITDTERKVKMAIVDKHVTPTLSINDPELMVGMPPSLTAATGLDALTHAIEAYVSTGATPITDALAIQAIKIISKYLPRAVANGKDIEAREQMAFAQSLAGMAFNNAGLGYVHAIAHQLGGFYNFPHGVCNAVLLPYVCRFNLISKVERYAEIAAFLGENVDGLSTYDAAEKAIKAIERMAKDLNIPKGFKELGAKEEDIETLAKNAMKDACALTNPRKPKLEEVIQIIKNAM
modifications: Bacillus methanolicus MGA3

Key:
Format in all cases: biochemical
[1] = Heat stability: pre-incubation of purified MDHs at 45° C. or 60° C. prior to the enzyme assay; conditions: preincubation at 60° C.; compared to the remaining MDHs
Description: FIG. 5. (A) Temperature stability of MGA3 Mdh, Mdh2 and Mdh3 was tested in vitro. Enzymes were incubated at 45° C. or at 60° C. prior to the enzyme assay. (B) Temperature stability of PB1 Mdh, Mdh1 and Mdh2 was tested in vitro. Enzymes were incubated at 45° C. or at 60° C. prior to the enzyme assay.
The heat stability of the six MDHs was tested by pre-incubation of the proteins at 45° C. and 60° C. and samples were taken at different time points for enzyme assays. As expected, all enzymes retained essentially all catalytic activity upon preincubations at 45° C. (FIG. 5). […] A selection of the experiments was repeated in the presence of equal amounts of purified Act, and this had no effect on temperature stability for any of the MDHs (data not shown).

[2] = Methanol dehydrogenase assay of purified recombinant MDH proteins (NADH production at 340 nm); conditions: for Vmax, variable substrate Methanol + Act / Vmax, variable substrate Methanol / Km: 45° C., pH 9.5; for Vmax, variable substrate Methanol: absence of Act
Description: Alcohol dehydrogenase activities were measured spectrophotometrically essentially as described previously (Hektor, Kloosterman et al. (2002) Chem 277(49): 46966-46973) and the reaction mixture contained: 100 mM Glycine-KOH pH 9.5 (unless otherwise stated), 5 mM MgSO4, 0.5 mM NAD^+ and 500 mM alcohol (methanol, ethanol, propanol, 1,3-propanediol, or butanol). NAD^+ was substituted with equal concentrations of NADP^+, FMN^+, and FAD^+, when indicated. The reaction mixture for measurements of formaldehyde reductase activity contained: 50 mM Potassium-phosphate buffer pH=6.7, 0.15 mM NADH, 1 mM DTT and 11.6 mM (0.1-116 mM) formaldehyde. The assay components were mixed in the cuvette and pre-warmed to 45° C., unless otherwise stated. The reactions were started by addition of 5-40 μg of the purified MDH proteins, and the production of NADH was monitored at 340 nm for 4 minutes. One unit of MDH activity was defined as the amount of enzyme needed to produce 1 μmol NADH per minute under the conditions described above. Purified Act (0.1-40 μg) or NudF (20 μg) proteins were added to the reaction mixtures as indicated in the text.
The purified MDH and Act proteins (20 μg) were used in the kinetic experiments performing the methanol dehydrogenase and the formaldehyde dehydrogenase assays essentially as described above. […] For determination of the Km for NAD^+ (Km,NAD+) and Vmax, the methanol concentration was kept constant at a saturating level (500 mM), while the concentration of NAD^+ was varied (5-1000 μM). […] Act (20 μg) was added to the reaction mixtures for determination of Kμ,MεOH and Vmax values in the presence of this activator, as indicated in the text. In general, the slopes of activity versus time were linear in the measured period (data not shown). Km and Vmax values were calculated by using nonlinear regression with the Microsoft Excel solver-tool to fit the measured data to the Michaelis-Menten equation, as described previously (Jakobsen et al., (2009) Appl Environ Microbiol 75(3): 652-661). The values obtained from the regression were then compared to the values obtained from Lineweaver-Burk and Hanes-Woolf plots to ensure that the global minimum, not a local minimum, had been found.

[3] = In vitro methanol dehydrogenase activity in lysates of recombinant B. subtilis 168; conditions: for methanol dehydrogenase activity on expression in B. subtilis (in words): 50° C., pH 9.5
Description: B. subtilis 168 cells were transformed with the act-MGA3, mdh-MGA3, mdh2-MGA3, and mdh3-MGA3 expression plasmids, and the analogous vectors coexpressing each of the methanol dehydrogenase genes with the act-MGA3 gene. Positive colonies were picked from the plate and the plasmid was isolated and checked by restriction for positive clones. Colonies were picked from plate and grown overnight at 37° C. (250 rpm) and diluted to OD600=0.1 in 20 ml LB containing chloramphenicol (5 μg/ml). After 3 hrs of growth at 37° C. (250 rpm), 500 μl 40% xylose were added to the culture to induce expression. The culture was grown for another 3 hrs and samples of 2 ml were taken. The sample was spun down for 2 min, 11.000×g and the supernatant was removed. The pellet was resuspended in 300 μl Birnboim A for B. subtilis (10 mM Tris-HCl pH 8.0; 20% sucrose; 50 mM NaCl; 0.25 mg/ml lysozyme; protease inhibitor) and incubated at 37° C. for 30 minutes. The samples were stored at −80° C. before use. In addition, we took advantage of recombinant E. coli cells constructed in the project expressing mdh-MGA3, mdh2-MGA3, mdh3-MGA3 and act-MGA3 from the pET21a plasmid in the in vitro assays.
The activities of the Mdh proteins were measured by following the formation of NADH spectrophoto-metrically. The reaction mixture contained: • 100 μl Glycine-KOH (pH 9.5) • 100 μl 5M Methanol (or 5M ethanol) • 5 μl 1M MgSO4 • 10 μl 50 mM NAD^+ • 10 μl sample • (10 μl E. coli act-pET21a lysate) • 775 μl H2O
The cuvets and reaction mixture without cell lysate were pre-incubated at 50° C. Formation of NADH was followed for 10 minutes at 340 nm at 50° C. The total activity was calculated by dividing the increase in absorption units per min by the extinction coefficient ([…]) and the total protein concentration in U/mg total protein. All assays were performed both by using methanol and ethanol as alternative substrates.

[4] = methanol 500 mM, read-out: Km, variable substrate NAD+

Molecule	temperature stability in vitro (in words) [1]	Vmax, variable substrate Methanol + Act ([2]; 20 μg MDH + 20 μg Act) [U/mg]	Vmax, variable substrate Methanol [2] [U/mg]	Km [2, 4] [µM]	change of Km,MeOH in the presence of Act (in words) ([2]; Act added vs. no Act)	methanol dehydrogenase activity on expression in B. subtilis (in words) [3]	Km ([2]; 20 μg MDH + 20 μg Act, read-out: Km, variable substrate Methanol + Act) [µM]	reduction of Km,MeOH in the presence of Act ([2]; Act added vs. no Act) [fold]	ranking of activity in B. subtilis ([3]; Act supplied from E. coli lysates)	ranking of activity in B. subtilis ([3]; act and mdh gene co-expressed from the same plasmid)
B1	Higher Temperature Stabilities; also recorded: improved thermostability	0.45	0.09	40	remained essentially the same	expressed active methanol dehydrogenases				
B2	only moderate negative effects	0.5	0.08	14		expressed active methanol dehydrogenases	12000	17	most active	
B3		0.15	0.04	22	remained essentially the same	expressed active methanol dehydrogenases				most active
